PMC9410881
Each block holds one substance with its values, some of them ahead of it.

Assays:
[1] = molecular target: Aca10 from Pseudomonas citronellolis (pcAca10), wild type (Pseudomonas citronellolis); test: SEC-MALS; Superdex 200 Increase 10/300 GL, SEC buffer (20 mM Tris-HCl pH 8.0, 150 mM NaCl), 0.5 ml/min, 20°C; self-association of Aca10
Aca10 D7K variant = test: SEC-MALS; conditions: parent: 17.39
Aca10 E52R mutant = test: SEC-MALS; conditions: parent: 17.39
Aca10 G49Y mutant = test: SEC-MALS; conditions: parent: 17.39

stoichiometry N [1]: 2
Substance: Aca10 from Pseudomonas citronellolis (pcAca10), wild type (natural protein)

other: MALS molecular weight (MW) (Aca10 D7K variant): 17 kDa
Substance: Aca10 from Pseudomonas citronellolis (pcAca10), wild type D7K

other: MALS molecular weight (MW) (Aca10 E52R mutant): 14.2 kDa
Substance: Aca10 from Pseudomonas citronellolis (pcAca10), wild type E52R

other: MALS molecular weight (MW) (Aca10 G49Y mutant): 10.2 kDa
Substance: Aca10 from Pseudomonas citronellolis (pcAca10), wild type G49Y
